The values below come from patent US20260184766A1.

A value given as a limit tells only on which side of the number the result lay.

Assay [1] deals with SARS-CoV-2 S variant 484K carried by pseudotyped virus (SARS-CoV-2), P0DTC2. Nature of the assay: cell-based or functional assay.
Assay [2] deals with SARS-CoV-2 S variant K417N/E484K/N501Y (B.1.351, SA variant; beta lineage) carried by pseudotyped virus (SARS-CoV-2 B.1.351), P0DTC2. Description: cell-based or functional assay.
Assay [3] concerns the target SARS CoV-2 omicron variant spike RBD (SARS-CoV-2 omicron variant). Description: ELISA on omicron variant RBD (panel RBD), OD450.
For assay [4], the target named is SARS CoV-2 omicron variant recombinant stabilized spike trimer (SARS-CoV-2 omicron variant).

B1: SKD chimeric bovine-human IgG1 (ultralong CDR3) (antibody)
VH: QVQLRESGPSLVKPSQTLSLTCTASGFSLSDKAVGWVRQAPGKALEWLGSIDTGGNTGYNPGLKSRLSITKDNSKSQVSLSVSSVTTEDSATYYCTTVHQRTSEKRSCPGGSSRRYPSGASCDVSGGACACYVSNCRGVLCPTLNEIVAYTYEWHVDAWGQGLLVTVSS
VL: QAVLNQPSSVSGSLGQRVSITCSGSSSNVGNGYVSWYQLIPGSAPRTLIYGDTSRASGVPDRFSGSRSGNTATLTISSLQAEDEADYFCASAEDSSSNAVFGSGTTLTVL
Consider B1, for which the EC50 (pM), pseudovirus luciferase assay in assay [1] is over 1000 pM. Also, in assay [2], the EC50 (pM), pseudovirus luciferase assay was over 1000 pM and the Neutralization of Pseudovirus (ng/mL; parameter not named) was over 1000 ng/mL.

B2: R2D9 chimeric bovine-human IgG1 (ultralong CDR3) (antibody)
VH: QVQLRESGPSLVKPSQTLSLTCTASGFSLSDKAIGWVRQAPGKALEWLGSIDTRGNTGYNPGLKSRLSITKDSSKSQVSLSVNSVTTEDSATYLCAIVQQITHKTCPNGYNWFDRCCSWDGTCGDGCCSNRAWPSGNGRADSSIGETYGYEFHVAAWGQGLLVTVSS
VL: QAVLNQPSSVSGSLGQRVSITCSGSSSNVGNGYVSWYQLIPGSAPRTLIYGDTSRASGVPDRFSGSRSGNTATLTISSLQAEDEADYFCASAEDSSSNAVFGSGTTLTVL
The EC50 (read off the curve) is the midpoint of the concentration-response curve. For the molecule B2, the EC50 (read off the curve) in assay [3] and in assay [4] was 0.4 nM throughout.

B3: R4C1 chimeric bovine-human IgG1 (ultralong CDR3) (antibody)
VH: QVQLRESGPSLVKPSQTLSLTCTASGFSLSDKAVGWVRQAPGKPLEWLGSIDTAENTGYNPGLKSRLSITKDNSKSQVSLSVSSVTTEDSATYYCATVHQKTRKEKNCPDGYIYSSNTASGYDCGVWICRRVGSAFCSRTGDYTSPSEFDIYEFYVEGWGQGLLVTVSS
VL: QAVLNQPSSVSGSLGQRVSITCSGSSSNVGNGYVSWYQLIPGSAPRTLIYGDTSRASGVPDRFSGSRSGNTATLTISSLQAEDEADYFCASAEDSSSNAVFGSGTTLTVL
With B3, the Neutralization of Pseudovirus (ng/mL; parameter not named) in assay [2] amounted to 375 ng/mL.

B4: SKM chimeric bovine-human IgG1 (ultralong CDR3) (antibody)
VH: QVQLRESGPSLVKPSQTLSLTCTASGFSLSDKAVGWVRQAPGKALEWLGSIDTGGNTGYNPGLKSRLSITKDNSKSQVSLSVSSVTTEDSATYYCTTVHQETLRSCPDGYIDNSGCTADWGCAALDCWRRRFGYHSTDPSHYTGATYIYTYSLHIDAWGQGLLVTVSS
VL: QAVLNQPSSVSGSLGQRVSITCSGSSSNVGNGYVSWYQLIPGSAPRTLIYGDTSRASGVPDRFSGSRSGNTATLTISSLQAEDEADYFCASAEDSSSNAVFGSGTTLTVL
In assay [1], B4 displayed an EC50 (pM), pseudovirus luciferase assay of over 1000 pM. In assay [2], this molecule registered an EC50 (pM), pseudovirus luciferase assay of over 1000 pM and a Neutralization of Pseudovirus (ng/mL; parameter not named) of over 1000 ng/mL.
